Tests used:
KI_II (mouse; human) [1] = biological target: KI_II (mouse; human) (UniProt P70424); assay: SPR (ProteOn), variant captured, 39S injected; apparent affinity
KO_I (mouse; human) = KO_I (mouse; human) (UniProt P70424); assay: SPR (ProteOn XPR36), variant captured by anti-Her2 polyclonal antibody, 39S injected; apparent affinity
KI_II (mouse; human) [2] = biological target: KI_II (mouse; human) (UniProt P70424); assay: as above

Kd (KI_II (mouse; human) [1]): 0.168 nM
Kd (KO_I (mouse; human)): 0.095 nM
Kd (KI_II (mouse; human) [2]): 0.163 nM
B1: 39S antibody (antibody, V domains shown)
VH: EVQLVESGGGLVKPGGSLRLSCAASGFTFSSYSMSWVRQAPGKGLEWVSSISSSSSYIYYADSVKGRFTISRDNAKNSLYLQMNSLRAEDTAVYYCARGGDAYNYYYFDYWGQGTLVTVSS
VL: DIVMTQTPLSLSVTPGQPASISCKSSQSVFFRSNNKNILAWYLQKPGQPPQLLIYWASSRESGVPDRFSGSGSGTDFTLKISRVEAEDVGVYYCQQYFGSPFTFGPGTKVDIK

From patent US20170291955A1
